Measurements reported in publication PMC3463608.

Biological target: His-tagged exomer complex (S. cerevisiae) (UniProt Q12114)
Assay: pull-down; His-exomer complex immobilized on Ni-NTA beads, incubated with 150 ug/ml purified GST-Chs3 fragments at RT for 30 min; washes with B88G + 1% Tween 20 and B88G; SDS-PAGE and Coomassie staining; bound fragment quantified, normalized to Chs5p in the lane and to the wt pull-down; two independent experiments

level of binding, % of wt: 62 to 63 % of wt
B1: GST-Chs3 (1–170) D19AE21A (domain or fragment)
chain: MTGLNGDDPDDYYLNLNQAEASLLRSRHSVGSGAPHRQGSLVRPERSRLNNPDNPHFYYAQKTQEQMNHLDVLPSSTGVNPNATRRSGSLRSKGSVRSKFSGRETDSYLLQDMNTTDKKASVKISDEGVAEDEFDKDGDVDNFEESSTQPINKSIKPLRKETNDTLSFWQ
